Patent US20220016205A1, “METHODS OF OVERCOMING RESISTANCE TO IMMUNE CHECKPOINT INHIBITORS” (Board of Regents, The University of Texas System, priority 2018, published 2022)

Columns and labels:
peritoneal macrophages [1] = assay: qPCR in peritoneal macrophages co-cultured with 344SQR cells (transwell) with follistatin or K02288; type: cell-based, mouse; conditions: 344SQR co-culture plus follistatin versus 344SQR co-culture only, 24 or 48 hours (FIG. 3J)
CD4^+ T cells [2] = assay: Western blotting of p38a and SMAD1/5/9 phosphorylation in CD4+ T cells treated with BMP7 or BMP7 plus follistatin; type: cell-based, mouse; conditions: BMP7 plus follistatin versus BMP7 alone, 1 hour (FIG. 4A)
Method: Protein extraction and Western blot analysis. Total protein was extracted by using NP40 lysis buffer (0.5% NP40, 250 mmol/1 NaCl, 50 mmol/1 HEPES, 5 mmol/1 ethylenediaminetetraacetic acid, and 0.5 mmol/1 egtazic acid) supplemented with protease inhibitors cocktails (Sigma-Aldrich). Lysates were centrifuged at 10,000×g for 10 minutes, and the supernatant was collected for experiments. Protein lysates (40 μg) were resolved on denaturing gels with 4-20% sodium dodecyl sulfate-polyacrylamide and transferred to nitrocellulose membranes (Bio-Rad Laboratories, Hercules, Calif.). Membranes were probed with primary antibodies directed against BMP7 (Abcam, Catalog #ab56023), Phospho-Smad1 (Ser463/465)/Smad5 (Ser463/465)/Smad9 (Ser465/467) (Cell Signaling Technologies, Catalog #13820), p38 MAPK (Cell Signaling Technologies, Catalog #8690), Vinculin (Cell Signaling Technologies, Catalog #13901), β-Actin (Cell Signaling Technologies, Catalog #3700), and a secondary antibody conjugated with horseradish peroxidase (Amersham GE Healthcare). […]
(§1) Co-culture experiments and treatments. Viable cells were counted with a hemocytometer (0.4% Trypan blue solution) and diluted to 40,000 cells per well in 24-wells plates. […] RNA was then isolated from RAW 264.7 or CD4^+ T cells and analyzed for p38α, IL-1α, IL-1β, TNF-α, RANTES, IL-2 and IFN-γ expression with qPCR.

RAW 264.7 cells [3] = assay: Immunofluorescence of p38a and SMAD1/5/9 phosphorylation in RAW 264.7 cells treated with BMP7 or BMP7 plus follistatin; type: cell-based, murine; conditions: 24 hours (FIG. 2K)
Method: Immunofluorescence analysis. RAW 264.7 cells were counted with a hemocytometer (0.4% Trypan blue solution), diluted to 200,000, and seeded in 4-well culture slides (Lab-Tek, Catalog #154917), and allowed to attach overnight. Cells were treated with 250 ng BMP7 (R&D Systems, Catalog #5666-BP-010) or follistatin (R&D Systems, Catalog #769-FS-025) and incubated for 24 h, and then fixed with 1% paraformaldehyde for 10 minutes, followed by a 10-minute wash in 70% ethanol at room temperature. Cells were then treated with 0.1% NP40 in PBS for 20 minutes, washed in PBS four times, and then blocked with 5% bovine serum albumin in PBS for 30 minutes. Cells were then incubated with p38a MAPK (L53F8) (Cell Signaling, Catalog #9228) and Phospho-Smad1 (Ser463/465), Smad5 (Ser463/465), and Smad9 (Ser465/467) (D5B10) (Cell Signaling, Catalog #13820) in 5% bovine serum albumin in PBS overnight according to the manufacturer's protocol. […] Slides were examined with a fluorescence microscope (Leica, Buffalo Grove, Ill.), and images were captured by a charge-coupled device camera and imported into the Advanced Spot Image analysis software package.

RAW 264.7 cells [4] = assay: qPCR of p38α, IL-1α, IL-1β, TNF-α, RANTES in RAW 264.7 cells treated with BMP7 or BMP7 plus follistatin; type: cell-based, murine; conditions: BMP7 plus follistatin versus BMP7 only, 24 or 48 hours (FIG. 3H)
Description: (§2) Quantitative polymerase chain reaction (qPCR). Total RNA was isolated from cells and tumors with Triazol (Life Technologies) according to the manufacturer's protocol. For studies of BMP7, p38α, IL-1α, IL-1β, TNF-α, RANTES, IL-2, and IFN-γ expression, mRNA was retrotranscribed with the iScript™ gDNA Clear cDNA Synthesis Kit (BioRad) and analyzed by qPCR using SYBR Green (Life Technologies) with specific primers according to the manufacturer's protocol. The comparative Ct method was used to calculate the relative abundance of mRNAs compared with ACTB (beta-actin) expression for cancer cells or CD45 expression for immune cells.
as §1, with “plates. Cells from 344SQP, 344SQR, 344SQ ctrl, or 344SQ-shBMP7 tumors were seeded at the top inserts (24-mm Transwell with 0.4-μm pore polycarbonate membrane insert, Sigma-Aldrich), and RAW 264.7 or CD4^+ T cells were seeded at the bottom of the transwell system.” for “plates.”

CD4^+ T cells [5] = assay: qPCR of p38α, IFN-γ, IL-2 in activated CD4+ T cells treated with BMP7 or BMP7 plus follistatin; type: cell-based, mouse; conditions: BMP7 plus follistatin compared with BMP7 only, 24 hours (FIG. 4F)
Description: as §2
(§3) Co-culture experiments and treatments. Viable cells were counted with a hemocytometer (0.4% Trypan blue solution) and diluted to 40,000 cells per well in 24-wells plates. Cells from 344SQP, 344SQR, 344SQ ctrl, or 344SQ-shBMP7 tumors were seeded at the top inserts (24-mm Transwell with 0.4-μm pore polycarbonate membrane insert, Sigma-Aldrich), and RAW 264.7 or CD4^+ T cells were seeded at the bottom of the transwell system. CD4^+ T cells were isolated from splenocytes by using Dynabeads Untouched Mouse CD4 Cells Kit (Thermo Fisher Scientific—Life Technologies, Catalog #11416D) and activated with LEAF purified anti-mouse CD3c antibody (5 μg/mL) and LEAF purified anti-mouse CD28 antibody (1 μg/mL) (Biolegend). […] RNA was then isolated from RAW 264.7 or CD4^+ T cells and analyzed for p38α, IL-1α, IL-1β, TNF-α, RANTES, IL-2 and IFN-γ expression with qPCR.
Next, CD4^+ T cells were co-cultured with 344SQP or 344SQR cells, and 344SQR ctrl or 344SQR shBMP7 cells, and the expression of p38α, IFN-γ, and IL-2 analyzed. […] To confirm that these findings depended on BMP7 and not on some other secreted molecule, CD4^+ T cells were treated with BMP7 with or without follistatin and p38α, IFN-γ, and IL-2 expression evaluated. […]

peritoneal macrophages [6] = assay: qPCR of p38α, IL-1α, IL-1β, TNF-α, RANTES in peritoneal macrophages treated with BMP7 or BMP7 plus follistatin; type: cell-based, mouse; conditions: BMP7 plus follistatin compared with BMP7 only
Description: as §2
as §3, with “system.” for “system. CD4^+ T cells were isolated from splenocytes by using Dynabeads Untouched Mouse CD4 Cells Kit (Thermo Fisher Scientific—Life Technologies, Catalog #11416D) and activated with LEAF purified anti-mouse CD3c antibody (5 μg/mL) and LEAF purified anti-mouse CD28 antibody (1 μg/mL) (Biolegend).”

B1: follistatin: BMP7 antagonist protein, natural inhibitor of BMP7 (R&D Systems, Catalog #769-FS-025) (protein, UniProt P19883 30-344, looked up)
Follistatin: GNCWLRQAKNGRCQVLYKTELSKEECCSTGRLSTSWTEEDVNDNTLFKWMIFNGGAPNCIPCKETCENVDCGPGKKCRMNKKNKPRCVCAPDCSNITWKGPVCGLDGKTYRNECALLKARCKEQPELEVQYQGRCKKTCRDVFCPGSSTCVVDQTNNAYCVTCNRICPEPASSEQYLCGNDGVTYSSACHLRKATCLLGRSIGLAYEGKCIKAKSCEDIQCTGGKKCLWDFKVGRGRCSLCDELCPDSKSDEPVCASDNATYASECAMKEAACSSGVLLEVKHSGSCNSISEDTEEEEEDEDQDYSFPISSILEW
expression of p38a and p38α-regulated cytokines and chemokines (peritoneal macrophages [1]): higher expression
SMAD1/5/9 activation (CD4^+ T cells [2]): lower
p38a expression (CD4^+ T cells [2]): higher
p38a expression (RAW 264.7 cells [3]; BMP7 plus follistatin compared with BMP7 alone): higher
SMAD1/5/9 activation (RAW 264.7 cells [3]; BMP7 plus follistatin versus BMP7 alone): lower
expression of p38a and p38α-regulated cytokines and chemokines (RAW 264.7 cells [4]): higher expression
expression of p38α, IFN-γ, and IL-2 (CD4^+ T cells [5]): higher expression
levels of p38α, IL-1α, TNF-α, IL-1β, and RANTES (peritoneal macrophages [6]): higher levels
